Results taken from US20250084155A1 (University of Texas, published 2025).

molecular target: T1, HSP70 (human HSP70; the antigen of the binning, humanization and variant binding assays) (human, UniProt P0DMV8 1-641, limits assumed); test: BLI, anti-human Fc capture, antigen 100 nM
T1 construct: also called hu HSP70
Protocol: Binding assays were performed as follows. Antibody variants were immobilized using anti-human Fc onto the surface of a series of biosensors at […]. Antigen, at 100 nM, was passed over the surface to generate a binding response. Binding data for the antibody:antigen interactions were collected at 25° C. on the biosensors. In Table 14, X=610 represents captured antigen value (nM) at the beginning of the dissociation phase (measured at 610 seconds after the biosensor was initially contacted with antigen) and X=1495 represents captured antigen value (nM) at the end of the dissociation phase (measured at 1495 seconds after the biosensor was initially contacted with antigen). In Table 14, antibodies with an X=610 value greater than 0.2 and a % dissociation less than 10% are shown in bold.

T1 sequence (P0DMV8 whole entry, change not shown): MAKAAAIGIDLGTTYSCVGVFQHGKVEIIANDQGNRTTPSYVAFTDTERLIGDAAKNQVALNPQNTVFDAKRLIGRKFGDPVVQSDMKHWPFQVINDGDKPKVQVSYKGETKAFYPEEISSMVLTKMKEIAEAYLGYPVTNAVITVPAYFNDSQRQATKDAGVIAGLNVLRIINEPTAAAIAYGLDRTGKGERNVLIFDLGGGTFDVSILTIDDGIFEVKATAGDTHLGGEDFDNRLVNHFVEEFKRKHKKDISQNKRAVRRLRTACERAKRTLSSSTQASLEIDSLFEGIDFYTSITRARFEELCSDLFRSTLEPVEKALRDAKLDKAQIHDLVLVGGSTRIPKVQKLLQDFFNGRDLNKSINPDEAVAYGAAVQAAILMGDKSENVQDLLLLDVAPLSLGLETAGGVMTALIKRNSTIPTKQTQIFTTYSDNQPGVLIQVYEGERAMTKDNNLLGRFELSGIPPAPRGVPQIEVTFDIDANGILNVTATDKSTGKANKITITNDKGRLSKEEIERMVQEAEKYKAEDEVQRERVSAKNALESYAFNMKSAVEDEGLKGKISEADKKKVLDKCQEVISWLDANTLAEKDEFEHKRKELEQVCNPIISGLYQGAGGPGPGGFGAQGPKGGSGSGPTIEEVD

% Diss [%]	Binder
30.7	h77A-1.91 (antibody, V domains shown, captured by anti-human Fc) VH: QIHLVQSGAEVKKPGASVKVSCKASGYIFTNYGMNWVRQAPGQGLEWMGWINTYTGEPTYADDFKGRFTFTTDTSTSTVYMELRSLRSDDTAVYFCVRYDHAMDYWGQGTLVTVSS VL: EIVLTQSPDSLSVSLGERATINCKSSQSLFNSGTRKNYLAWYQQKAGQSPKLLIYWTSTRESGVPDRFSGSGSGTDFTLTIDSLQAEDVAVYYCKQSYTLYTFGGGTKVEIK
30.1	h77A-1.81 (antibody, V domains shown, captured by anti-human Fc) VH: QIHLVQSGAEVKKPGASVKVSCKASGYIFTNYGMNWVRQAPGQGLEWMGWINTYTGEPTYADDFKGRFTFTTDTSTSTVYMELRSLRSDDTAVYFCVRYDHAMDYWGQGTLVTVSS VL: EIVLTQSPDSLAVSLGERATINCKSSQSLFNSGTRKNYLAWYQQKAGQSPKLLIYWTSTRESGVPDRFSGSGSGTDFTLTIDSLQAEDVAVYYCKQSYTLYTFGGGTKVEIK
14.1	h77A-1.86 (antibody, V domains shown, captured by anti-human Fc) VH: QIQLVQSGVEVKKPGASVKVSCKASGYTFTNYGMNWVRQAPGQGLEWMGWINTYTGETTYADDFKGRFTFTTDTSTSTAYMELRSLRSDDTAVYFCARYDHAMDYWGQGTLVTVSS VL: EIVLTQSPDSLAVSLGERATINCKSSQSLFNSGTRKNYLAWYQKKAGQSPKLLIYWTSTRESGVPDRFSGSGSGTDFTLSIDRLQAEDVAVYYCKQSYTLYTFGGGTKVEIK
27.2	h77A-1.97 (antibody, V domains shown, captured by anti-human Fc) VH: QIQLVQSGAEVKKPGASVKVSCKASGYTFTNYGMNWVRQAPGQGLEWMGWINTYTGEPTYADDFKGRFTMTTDTSTSTAYMELRSLRSDDTAVYFCARYDHAMDYWGQGTLVTVSS VL: DIVMTQSPDSLAVSLGERATINCKSSQSLLNSGTRKNYLAWYQQKPGQSPKLLIYWTSTRESGVPDRFSGSGSGTDFTLTISSLQAEDVAVYYCKQSYTLYTFGQGTKLEIK
32.5	h77A-1.77 (antibody, V domains shown, captured by anti-human Fc) VH: QIQLVQSGPEVKKPGASVKVSCKASGYIFTNYGMNWVRQAPGQGLEWMGWINTYTGEPTYGDDFKGRFTFTTDTSTSTAYMELRSLRSDDTAVYFCGRYDHAMDYWGQGTLVTVSS VL: EIVLTQSPDSLAVSLGERATINCKSSQSLLNSGTRKNYLAWYQQKAGQSPKLLIYWTSTRESGVPDRFSGSGSGTDFTLTIDRLQAEDVAVYYCKQSYTLYTFGGGTKVEIK
-37.4	h77A-1.79 (antibody, V domains shown, captured by anti-human Fc) VH: QIQLVQSGAEVKKPGASVKVSCKASGYTFTKYGMNWVRQAPGQGLEWMGWINTYTGEPRYADDFKGRFTFTTDTSTSTAYMELRSLRSDDTAVYFCARYDHRMDYWGQGTLVTVSS VL: EIVLTQSPDSLAVSLGERATINCKSSQSLLNSGTRKNYLAWYQQKPGQSPKLLIYWTSTRESGVPDRFSGSGSGTDFTLTIDSLQAEDVAVYYCKQSYNLYTFGGGTKVEIK
18.8	h77A-1.96 (antibody, V domains shown, captured by anti-human Fc) VH: QIQLVQSGAEVKKPGASVKVSCKASGYTFTNYGMNWVRQAPGQGLEWMGWINTYTGEPTYADDFKGRFTFTTDTSTSTAYMELRSLRSDDTAVYFCARYDHAMDYWGQGTLVTVSS VL: DIVMTQSPDSLAVSLGERATINCKSSQSLLNSGTRKNYLAWYQQKPGQSPKLLIYWTSTRESGVPDRFSGSGSGTDFTLTISSLQAEDVAVYYCKQSYTLYTFGQGTKLEIK
32.4	h77A-1.92 (antibody, V domains shown, captured by anti-human Fc) VH: QIQLVQSGAEVKKPGASVKVSCKASGYSFTNYGMNWVRQAPGQGLEWMGWINTYTGEPTYGDDFKGRFTFTTDTSTSTAYMELRSLRSDDTAVYFCARYDHAMDYWGQGTLVTVSS VL: EIVLTQSPDSLTVSLGERATINCKSSQSLFNSGTRKNYLAWYQKKAGQSPKLLIYWTSTRESGVPDRFSGSGSGTDFTLTIDSLQAEDVAVYYCKQSYNLYTFGGGTKVEIK
16.1	h77A-1.85 (antibody, V domains shown, captured by anti-human Fc) VH: QIHLVQSGAEVKKPGASVKVSCKASGYIFTNYGMNWVRQAPGQGLEWMGWINTYTGEPTYADDFKGRFTFTTDTSTSTAYMELRSLRSDDTAVYFCVRYDHAMDYWGQGTLVTVSS VL: EIVLTQSPDSLAVSLGERATINCKSSQSLLNSGTRKNYLSWYQKKSGQSPKLLIYWTSTRESGVPDRFSGSGSGTDFTLTIDSLQAEDVAVYYCKQSYTLYTFGGGTKVEIK
-8.84	h77A-1.80 (antibody, V domains shown, captured by anti-human Fc) VH: QIQLVQSGAEVKKPGASVKVSCKASGYTFTNYGMNWVRQAPGQGLEWMGWINTYTGEPKYADDFKGRFTFTTDTSTSTAYMELRSLRSDDTAVYFCARYDHVMDYWGQGTLVTVSS VL: EIVLTQSPDSLAVSLGERATINCKSSQSLLNSGTRKNYLSWYQQKPGQSPKLIIYWTSTRESGVPDRFSGSGSGTDFTLTIDSLQAEDVAVYYCKQSYTLYTFGGGTKVEIK
12.1	h77A-1.76 (antibody, V domains shown, captured by anti-human Fc) VH: QIQLVQSGVEVKKPGASVKVSCKASGYTFTNYGMNWVRQAPGQGLEWMGWINTYTGETTYADDFKGRFTFTTDTSTSTAYMEVRSLRSDDTAVYFCARYDHAMDYWGQGTLVTVSS VL: EIVLTQSPDSLAVSLGERATINCKSSQSLFNSGTRKNYLAWYQQKAGQSPKLLIYWTSTRESGVPDRFSGSGSGTDFTLSIDSLQAEDVAVYYCKQSYTLYTFGGGTKVEIK

Continued, binder first:

Binder	% Diss [%]
h77A-1.54 (antibody, V domains shown, captured by anti-human Fc) VH: QIQLVQSGAEVKKPGASVKVSCKASGYTFTKYGMNWVRQAPGQGLEWMGWINTYTGEPKYGDDFKGRFTFTTDTSTSTAYMELRSLRSDDTAVYFCARYDHRMDYWGQGTLVTVSS VL: EIVLTQSPDSLAVSLGERATINCKSSQSLLNSGTRKNYLAWYQQKAGQSPKLLIYWTSTRESGVPDRFSGSGSGTDFTLTIDSLQAEDVAVYYCKQSYTLYTFGGGTKVEIK	-41.2
h77A-1.72 (antibody, V domains shown, captured by anti-human Fc) VH: QIQLVQSGPEVKKPGASVKVSCKASGYIFTNYGMNWVRQAPGQGLEWMGWINTYTGETTYADDFKGRFTFTTDTSTTTVYMELRSLRSDDTAVYFCARYDHAMDYWGQGTLVTVSS VL: EIVLTQSPDSLAVSLGERATINCKSSQSLLNSGTRKNYLAWYQQKAGQSPKLLIYWTSTRESGVPDRFSGSGSGTDFTLTIDSLQAEDVAVYYCKQSYTLYTFGGGTKVEIK	31.5
h77A-1.57 (antibody, V domains shown, captured by anti-human Fc) VH: QIQLVQSGAEVKKPGASVKVSCKASGYTFTNYGMNWVRQAPGQGLEWMGWINTYTGEATYADDFKGRFTFTTDTSTSTAYMELRSLRSDDTAVYFCARYDHVMDYWGQGTLVTVSS VL: EIVLTQSPDSLAVSLGERATINCKSSQSLVNSGTRKNYLAWYQQKAGQSPKLLIYWTSTRESGVPDRFSGSGSGTDFTLTIDSLQTEDVAVYYCKQSYTLYTFGGGTKVEIK	25.9
h77A-1.65 (antibody, V domains shown, captured by anti-human Fc) VH: QIQLVQSGAEVKKPGASVKVSCKASGYTFTNYGMNWVRQAPGQGLEWMGWINTYTGEATYADDFKGRFTFTTDTSTSTAYMELRSLRSDDTAVYFCARYDHAMDYWGQGSLVTVSS VL: EIVLTQSPDSLAVSLGERATINCKSSQSLLNSGTRKNYLAWYQQKSGQSPKLLIYWTSTRESGVPDRFSGSGSGTDFTLTIDSLQAEDVAIYYCKQSYTLYTFGGGTKVEIK	20.5
h77A-1.62 (antibody, V domains shown, captured by anti-human Fc) VH: QIQLVQSGAEVKKPGASVKVSCKASGYTFTNYGMNWVRQAPGQGLEWMGWINTYTGEPTYADDFKGRFTFTTDTSTTTGYMELRSLRSDDTAVYFCARYDHAMDYWGQGTLVTVSS VL: EIVLTQSPDSLAVSLGERATIKCKSSQSLLNSGTRKNYLAWYQQKAGQSPKLLIYWTSTRESGVPDRFSASGSGTDFTLTIDSLQAEDVAVYYCKQSYTLYTFGGGTKVEIK	12.3
h77A-1.64 (antibody, V domains shown, captured by anti-human Fc) VH: QIQLVQSGAEVKKPGASVKVSCKASGYTFTNYGMNWVRQAPGQGLEWMGWINTYTGESTYADDFKGRFTFTTDTSTSTAYMELRSLRSDDTAVYFCARYDHAMDYWGQGTLVTVSS VL: EIVLTQSPDSLAVSLGERATINCKSSQSLLNSGTRKNYLAWYQKKAGQSPKLLIYWTSTRESGVPDRFSGSGSGTDFTLSIDSLQAEDVAIYYCKQSYTLYTFGGGTKVEIK	21
h77A-1.70 (antibody, V domains shown, captured by anti-human Fc) VH: QIQLVQSGAEVKKPGASVKVSCKASGYTFTNYGMNWVRQAPGQGLEWMGWINTYTGEPTYSDDFKGRFTFTTDTSTSTAYMELRSLRSDDTAVYFCARYDHAMDYWGQGTLVTVSS VL: EIVLTQSPDSLSVSLGERATINCKSSQSLLNSGTRKNYLAWYQKKAGQSPKLLIYWTSTRESGVPDRFSGSGSGTDFTLTIDRLQAEDVALYYCKQSYTLYTFGGGTKVEIK	11.6
h77A-1.55 (antibody, V domains shown, captured by anti-human Fc) VH: QIQLVQSGSEVKKPGASVKVSCKASGYTFTNYGMNWVRQAPGQGLEWMGWINTYTGEPTYGDDFKGRFTFTTDTSTSTAYMELRSLRSDDTAVYFCARYDHFMDYWGQGTLVTVSS VL: EIVLTQSPDSLSVSLGERATINCKSSQSLLNSGTRKNYLAWYQQKAGQSPKLLIYWTSTRESGVPDRFSGSGSGTDFTLTIDSLQAEDVAVYYCKQSYTLYTFGGGTKVEIK	26.7
h77A-1.66 (antibody, V domains shown, captured by anti-human Fc) VH: QIQLVQSGAEVKKPGASVKVSCKASGYIFTNYGMNWVRQAPGQGLEWMGWINTYTGESTYADDFKGRFTFTTDTSTSTVYMELRSLRSDDTAVYFCARYDHAMDYWGQGTLVTVSS VL: EIVLTQSPDSLAVSLGERATIKCKSSQSLLNSGTRKNYLAWYQQKAGQSPKLLIYWTSTRESGVPDRFSGSGSGTDFTLTIDSLQAEDVAVYYCKQSYTLYTFGGGTKVEIK	32.1
h77A-1.63 (antibody, V domains shown, captured by anti-human Fc) VH: QIQLVQSGAEVKKPGASVKVSCKASGYTFTNYGMNWVRQAPGQGLEWMGWINTYTGEPTYADDFKGRFTFTTDTSTSTAYMELRSLRSDDTAVYFCARYDHAMDYWGQGSLVTVSS VL: EIVLTQSPDSLAVSLGERATINCKSSQSLLNSGTRKNYLTWYQQKSGQSPKLLIYWTSTRESGVPDRFSGSGSGTDFTLTIDSLQAEDVAIYYCKQSYTLYTFGGGTKVEIK	14.2
